Data: patent publication US20220025010A1 (ANTAG THERAPEUTICS, published 2022)
Like-named read-outs stand apart in the source and are kept apart here. *1 amine or outer side, *2 acyl side, *3 side chain or, on linkers, in order; H or OH if unused. Where no end group is shown, it is not given here. Side-chain parts run from the residue outwards. The star is where a group is joined. C16 diacid = O=C(O)CCCCCCCCCCCCCCC(=O)*; γGlu = O=C(O)[C@H](CCC(=O)[*:2])N[*:1]; AEEA = NCCOCCOCC(=O)O

T1: human GIP receptor (human, UniProt P48546 22-466)
T1 sequence (looked up): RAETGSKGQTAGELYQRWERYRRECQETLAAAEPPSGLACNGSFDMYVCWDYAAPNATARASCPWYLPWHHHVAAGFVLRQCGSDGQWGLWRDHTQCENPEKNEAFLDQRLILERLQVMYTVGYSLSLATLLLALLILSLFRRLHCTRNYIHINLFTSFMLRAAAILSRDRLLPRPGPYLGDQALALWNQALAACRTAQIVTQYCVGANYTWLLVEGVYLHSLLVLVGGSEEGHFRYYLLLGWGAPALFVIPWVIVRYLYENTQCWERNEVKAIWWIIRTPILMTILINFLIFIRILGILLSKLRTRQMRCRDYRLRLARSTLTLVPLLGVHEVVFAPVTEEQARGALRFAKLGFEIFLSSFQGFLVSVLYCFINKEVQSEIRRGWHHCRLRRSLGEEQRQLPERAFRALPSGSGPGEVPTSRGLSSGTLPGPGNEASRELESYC

B1: AT277 (peptide)
peptide: SGTFISDYSIAMDRIK([AEEA-AEEA-γGlu-C16 diacid])QQDFVNWLLAQR-OH
modifications: N-terminus assumed
SMILES: CC[C@H](C)[C@H](NC(=O)[C@H](CO)NC(=O)[C@H](Cc1ccc(O)cc1)NC(=O)[C@H](CC(=O)O)NC(=O)[C@H](CO)NC(=O)[C@@H](NC(=O)[C@H](Cc1ccccc1)NC(=O)[C@@H](NC(=O)CNC(=O)[C@@H](N)CO)[C@@H](C)O)[C@@H](C)CC)C(=O)N[C@@H](C)C(=O)N[C@@H](CCSC)C(=O)N[C@@H](CC(=O)O)C(=O)N[C@@H](CCCNC(=N)N)C(=O)N[C@H](C(=O)N[C@@H](CCCCNC(=O)COCCOCCNC(=O)COCCOCCNC(=O)CC[C@H](NC(=O)CCCCCCCCCCCCCCC(=O)O)C(=O)O)C(=O)N[C@@H](CCC(N)=O)C(=O)N[C@@H](CCC(N)=O)C(=O)N[C@@H](CC(=O)O)C(=O)N[C@@H](Cc1ccccc1)C(=O)N[C@H](C(=O)N[C@@H](CC(N)=O)C(=O)N[C@@H](Cc1c[nH]c2ccccc12)C(=O)N[C@@H](CC(C)C)C(=O)N[C@@H](CC(C)C)C(=O)N[C@@H](C)C(=O)N[C@@H](CCC(N)=O)C(=O)N[C@@H](CCCNC(=N)N)C(=O)O)C(C)C)[C@@H](C)CC
B2: AT357 (peptide)
peptide: YSIAMDKIK(C16 diacid)QQDFVNWLLAQK-NH2
modifications: N-terminus assumed
SMILES: CC[C@H](C)[C@H](NC(=O)[C@H](CO)NC(=O)[C@@H](N)Cc1ccc(O)cc1)C(=O)N[C@@H](C)C(=O)N[C@@H](CCSC)C(=O)N[C@@H](CC(=O)O)C(=O)N[C@@H](CCCCN)C(=O)N[C@H](C(=O)N[C@@H](CCCCNC(=O)CCCCCCCCCCCCCCC(=O)O)C(=O)N[C@@H](CCC(N)=O)C(=O)N[C@@H](CCC(N)=O)C(=O)N[C@@H](CC(=O)O)C(=O)N[C@@H](Cc1ccccc1)C(=O)N[C@H](C(=O)N[C@@H](CC(N)=O)C(=O)N[C@@H](Cc1c[nH]c2ccccc12)C(=O)N[C@@H](CC(C)C)C(=O)N[C@@H](CC(C)C)C(=O)N[C@@H](C)C(=O)N[C@@H](CCC(N)=O)C(=O)N[C@@H](CCCCN)C(N)=O)C(C)C)[C@@H](C)CC

Assays:
Assay in all cases: cell-based or functional assay
human GIP receptor [1] = target: T1, human GIP receptor
GLP1 receptor = GLP1 receptor (UniProt P43220 24-463, limits assumed)
human GIP receptor [2] = target: T1, human GIP receptor; remark: listed apart in the source
human GIP receptor [3] = target: T1, human GIP receptor; remark: listed apart in the source

Binder	CisBio cAMP antagonism % inhib (human GIP receptor [1])	CisBio cAMP antagonism IC50 (human GIP receptor [1])	cAMP antagonism IC50 (human GIP receptor [1])	cAMP antagonism % inhib (GLP1 receptor)	cAMP antagonism IC50 (GLP1 receptor)	cAMP antagonism index (GLP1 receptor)	cAMP antagonism log IC50 (GLP1 receptor)	CisBio cAMP agonism % Efficacy (human GIP receptor [2])	CisBio cAMP antagonism % inhib (human GIP receptor [2])	CisBio cAMP antagonism IC50 (human GIP receptor [2])	CisBio cAMP antagonism pIC50 (human GIP receptor [2])	DiscoveRx cAMP agonism Emax (human GIP receptor [2])	DiscoveRx cAMP antagonism IC50 (human GIP receptor [2])	DiscoveRx cAMP antagonism log IC50 (human GIP receptor [2])	cAMP antagonism % inhib (human GIP receptor [3])	cAMP antagonism IC50 (human GIP receptor [3])	cAMP antagonism log IC50 (human GIP receptor [3])
B1	84%	31.6 nM	16 nM	68%	6100 nM	561	-5.2 log M	8%	84%	31.6 nM	7.5	9	16 nM	-7.8 log M			
B2								0%	40%	178 nM	6.8				100%	528 nM	-6.3 log M
